The assay concerns the target purified human complement Factor H (human) (UniProt P08603). As to the kind of experiment: steady state fluorescence titration of purified human Factor H.

purified human complement Factor H (human), sequence (P08603 19-1231 limits assumed): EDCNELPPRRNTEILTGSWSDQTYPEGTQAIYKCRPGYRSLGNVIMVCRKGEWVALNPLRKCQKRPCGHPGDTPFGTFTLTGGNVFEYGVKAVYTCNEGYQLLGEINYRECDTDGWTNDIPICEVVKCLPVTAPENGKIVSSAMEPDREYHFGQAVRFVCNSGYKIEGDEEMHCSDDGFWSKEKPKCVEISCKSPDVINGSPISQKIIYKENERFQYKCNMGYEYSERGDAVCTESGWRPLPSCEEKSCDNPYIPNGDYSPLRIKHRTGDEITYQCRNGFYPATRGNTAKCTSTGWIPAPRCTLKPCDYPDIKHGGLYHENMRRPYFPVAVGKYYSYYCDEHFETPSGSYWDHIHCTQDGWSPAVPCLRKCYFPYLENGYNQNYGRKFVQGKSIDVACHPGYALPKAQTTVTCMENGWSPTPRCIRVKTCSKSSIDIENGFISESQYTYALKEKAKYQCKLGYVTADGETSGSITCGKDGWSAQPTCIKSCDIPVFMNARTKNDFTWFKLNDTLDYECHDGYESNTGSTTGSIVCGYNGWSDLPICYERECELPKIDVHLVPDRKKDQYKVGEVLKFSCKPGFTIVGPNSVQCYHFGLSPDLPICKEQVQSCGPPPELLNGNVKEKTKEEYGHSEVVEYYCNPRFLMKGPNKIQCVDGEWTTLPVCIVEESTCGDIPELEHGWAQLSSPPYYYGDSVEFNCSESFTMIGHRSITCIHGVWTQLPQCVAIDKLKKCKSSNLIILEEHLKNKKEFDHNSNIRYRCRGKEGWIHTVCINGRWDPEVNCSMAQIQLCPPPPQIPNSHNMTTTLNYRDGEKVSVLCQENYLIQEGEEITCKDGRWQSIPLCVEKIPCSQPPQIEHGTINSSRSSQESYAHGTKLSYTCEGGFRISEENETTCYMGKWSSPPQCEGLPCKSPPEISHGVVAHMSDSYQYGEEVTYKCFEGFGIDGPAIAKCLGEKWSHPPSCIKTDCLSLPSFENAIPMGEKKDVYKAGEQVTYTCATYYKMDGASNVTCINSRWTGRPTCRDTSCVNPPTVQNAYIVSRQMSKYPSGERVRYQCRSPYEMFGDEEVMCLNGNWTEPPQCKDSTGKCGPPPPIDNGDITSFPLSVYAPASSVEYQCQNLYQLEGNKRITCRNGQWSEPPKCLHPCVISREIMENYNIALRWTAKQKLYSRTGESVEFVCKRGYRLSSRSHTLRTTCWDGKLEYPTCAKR

B1: recombinant dentin matrix protein 1 (rDMP1) (ligand)
chain: LPVTRYQNNESEDSEEWKGHLAQAPTPPLESSESSEGSKVSSEEQANEDPSDSTQSEEGLGSDDHQYIYRLAGGFSRSTGKGGDDKDDDEDDSGDDTFGDDDSGPGPKDRQEGGNSRLGSDEDSDDTIQASEESAPQGQDSAQDTTSESRELDNEDRVDSKPEGGDSTQESESEEHWVGGGSDGESSHGDGSELDDEGMQSDDPESIRSERGNSRMNSAGMKSKESGENSEQANTQDSGGSQLLEHPSRKIFRKSRISEEDDRSELDDNNTMEEVKSDSTENSNSRDTGLSQPRRDSKGDSQEDSKENLSQEESQNVDGPSSESSQEANLSSQENSSESQEEVVSESRGDNPDPTTSYVEDQEDSDSSEEDSSHTLSHSKSESREEQADSESSESLNFSEESPESPEDENSSSQEGLQSHSSSAESQSEESHSEEDDSDSQDSSRSKEDSNSTESKSSSEEDGQLKNIEIESRKLTVDAYHNKPIGDQDDNDCQDGY
As to B1, the stoichiometry (DMP1:Factor H) worked out at 1 molar ratio.

The values are drawn from patent EP1169642B1.
